T1: soluble mouse FcγRII, His-tagged (mouse, UniProt P08101 30-210, limits assumed)
T1 construct: Captured on the chip through an anti-His antibody
T1 sequence (looked up): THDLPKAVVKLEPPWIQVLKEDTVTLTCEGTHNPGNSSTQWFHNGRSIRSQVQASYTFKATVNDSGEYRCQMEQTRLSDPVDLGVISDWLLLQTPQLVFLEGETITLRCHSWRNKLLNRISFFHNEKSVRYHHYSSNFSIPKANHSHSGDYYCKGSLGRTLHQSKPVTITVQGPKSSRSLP

T2: human FcγRIIb constitutively expressed on MDCK cells (human, UniProt P31994 43-310)
T2 sequence (looked up): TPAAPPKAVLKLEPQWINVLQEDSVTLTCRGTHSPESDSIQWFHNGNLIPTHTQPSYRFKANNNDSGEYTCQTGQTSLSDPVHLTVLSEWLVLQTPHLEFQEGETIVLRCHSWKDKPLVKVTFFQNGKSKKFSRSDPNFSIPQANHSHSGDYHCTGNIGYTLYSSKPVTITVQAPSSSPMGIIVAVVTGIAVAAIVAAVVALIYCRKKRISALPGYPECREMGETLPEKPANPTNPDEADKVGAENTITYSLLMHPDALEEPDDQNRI


Tests used:
[1] = target: T1, soluble mouse FcγRII, His-tagged; assay: SPR, mouse FcγRII captured via His-tag, antigen-antibody complex injected, pH 7.4, 25 C
Method: Regarding the produced Fc region variant-containing antibodies, binding assays between soluble mouse FcγRII and antigen-antibody complexes were performed using BIACORE® T200 (GE Healthcare). Soluble mouse FcγRII was produced in the form of a His-tagged molecule by a method known to those skilled in the art. An appropriate amount of an anti-His antibody was fixed onto Sensor chip CM5 (GE Healthcare) by the amine coupling method using a His capture kit (GE Healthcare) to capture mouse FcγRII. Next, an antibody-antigen complex and a running buffer (as a reference solution) were injected, and interaction was allowed to take place with the mouse FcγRII captured onto the sensor chip. 20 mM N-(2-Acetamido)-2-aminoethanesulfonic acid, 150 mM NaCl, 1.2 mM CaCl₂), and 0.05% (w/v) TWEEN® 20 at pH7.4 was used as the running buffer, and the respective buffer was also used to dilute the soluble mouse FcγRII. To regenerate the sensor chip, 10 mM glycine-HCl at pH1.5 was used. All measurements were carried out at 25° C. […] To calculate the parameters, the BIACORE® T100 Evaluation Software (GE Healthcare) was used.

[2] = target: T2, human FcγRIIb constitutively expressed …; assay: cell-based or functional assay

Row | Binder | biacore IC binding (relative, SG1 = 1.00) [1] | celluar uptake (labelled human latent myostatin taken up as antigen-antibody complex) [2]
1 | M103205H795-P1542m/M103202L889-SK1 (antibody, human IgG1, kappa, name in EU numbering, copies: 2 + 2) heavy: not shown light: DIVMTQSPATLSLSPGERATLSCTSSQSVYHANWLSWFQQKPGQPPKLLIYWASTLAYGVPSRFSGSGSGTDFTLTISSLQPEDAATYYCAGGYGGGRYAFGQGTKVEIKRTVAAPSVFIFPPSDEQLKSGTASVVCLLNNFYPREAKVQWKVDNALQSGNSQESVTEQDSKDSTYSLSSTLTLSKADYEKHKVYACEVTHQGLSSPVTKSFNRGEC | 1.21 relative to SG1 | 3.32 relative to SG1 = 1.00
2 | M103205H795-P1544m/M103202L889-SK1 (antibody, human IgG1, kappa, name in EU numbering, copies: 2 + 2) heavy: QVTLKESGPVLVKPTETLTLTCTVSGIDLSHDDISWVRQAPGKGLEWVGIISYAGSTYYASWAKGRLTISKDTSKNQVVLTMTNMDPVDTATYYCARGVPAYSHGGDLWGQGTLVTVSSASTKGPSVFPLAPSSKSTSGGTAALGCLVKDYFPEPVTVSWNSGALTSGVHTFPAVLQSSGLYSLSSVVTVPSSSLGTQTYICNVNHKPSNTKVDKKVEPKSCDKTHTCPPCPAPELLGGPSVFLFPPKPKDTLMISRTPEVTCVVVDVSHEDPEVKFNWYVDGVEVHNAKTKPREEQYNSTYRVVSVLTVLHRDWLNGKEYKCKVSNKALPAPIEKTISKAKGQPREPQVYTLPPSREEMTKNQVSLTCLVKGFYPSDIAVEWESNGQPENNYKTTPPVLDSRGSFFLYSKLTVKKSRWQQGNVFSCSVMHEALHNHYTQKSLSLSP light: DIVMTQSPATLSLSPGERATLSCTSSQSVYHANWLSWFQQKPGQPPKLLIYWASTLAYGVPSRFSGSGSGTDFTLTISSLQPEDAATYYCAGGYGGGRYAFGQGTKVEIKRTVAAPSVFIFPPSDEQLKSGTASVVCLLNNFYPREAKVQWKVDNALQSGNSQESVTEQDSKDSTYSLSSTLTLSKADYEKHKVYACEVTHQGLSSPVTKSFNRGEC | 2.04 relative to SG1 | 7.66 relative to SG1 = 1.00
3 | M103205H795-P1543m/M103202L889-SK1 (antibody, human IgG1, kappa, name in EU numbering, copies: 2 + 2) heavy: not shown light: DIVMTQSPATLSLSPGERATLSCTSSQSVYHANWLSWFQQKPGQPPKLLIYWASTLAYGVPSRFSGSGSGTDFTLTISSLQPEDAATYYCAGGYGGGRYAFGQGTKVEIKRTVAAPSVFIFPPSDEQLKSGTASVVCLLNNFYPREAKVQWKVDNALQSGNSQESVTEQDSKDSTYSLSSTLTLSKADYEKHKVYACEVTHQGLSSPVTKSFNRGEC | 1.19 relative to SG1 | 3.7 relative to SG1 = 1.00
4 | M103205H795-P1545m/M103202L889-SK1 (antibody, human IgG1, kappa, name in EU numbering, copies: 2 + 2) heavy: QVTLKESGPVLVKPTETLTLTCTVSGIDLSHDDISWVRQAPGKGLEWVGIISYAGSTYYASWAKGRLTISKDTSKNQVVLTMTNMDPVDTATYYCARGVPAYSHGGDLWGQGTLVTVSSASTKGPSVFPLAPSSKSTSGGTAALGCLVKDYFPEPVTVSWNSGALTSGVHTFPAVLQSSGLYSLSSVVTVPSSSLGTQTYICNVNHKPSNTKVDKKVEPKSCDKTHTCPPCPAPELLGGPSVFLFPPKPKDTLMISRTPEVTCVVVDVSHEDPEVKFNWYVDGVEVHNAKTKPREEQYNSTYRVVSVLTVLHRDWLNGKEYKCKVSNKALPAPIEKTISKAKGQPREPQVYTLPPSREEMTKNQVSLTCLVKGFYPSDIAVEWESNGQPENNYKTTPPVLDSKGSFFLYSKLTVKKSRWQQGNVFSCSVMHEALHNHYTQKSLSLSP light: DIVMTQSPATLSLSPGERATLSCTSSQSVYHANWLSWFQQKPGQPPKLLIYWASTLAYGVPSRFSGSGSGTDFTLTISSLQPEDAATYYCAGGYGGGRYAFGQGTKVEIKRTVAAPSVFIFPPSDEQLKSGTASVVCLLNNFYPREAKVQWKVDNALQSGNSQESVTEQDSKDSTYSLSSTLTLSKADYEKHKVYACEVTHQGLSSPVTKSFNRGEC | 1.8 relative to SG1 | 7.73 relative to SG1 = 1.00
5 | M103205H795-P1546m/M103202L889-SK1 (antibody, human IgG1, kappa, name in EU numbering, copies: 2 + 2) heavy: QVTLKESGPVLVKPTETLTLTCTVSGIDLSHDDISWVRQAPGKGLEWVGIISYAGSTYYASWAKGRLTISKDTSKNQVVLTMTNMDPVDTATYYCARGVPAYSHGGDLWGQGTLVTVSSASTKGPSVFPLAPSSKSTSGGTAALGCLVKDYFPEPVTVSWNSGALTSGVHTFPAVLQSSGLYSLSSVVTVPSSSLGTQTYICNVNHKPSNTKVDKKVEPKSCDKTHTCPPCPAPELLGGPSVFLFPPKPKDTLMISRTPEVTCVVVDVSHEDPEVKFNWYVDGVEVHNAKTKPREEQYNSTYRVVSVLTVLHRDWLNGKEYKCKVSNKALPAPIEKTISKAKGQPREPQVYTLPPSREEMTKNQVSLTCLVKGFYPSDIAVEWESNGQPENNYKTTPPVLDSDRSFFLYSKLTVKKSRWQQGNVFSCSVMHEALHNHYTQKSLSLSP light: DIVMTQSPATLSLSPGERATLSCTSSQSVYHANWLSWFQQKPGQPPKLLIYWASTLAYGVPSRFSGSGSGTDFTLTISSLQPEDAATYYCAGGYGGGRYAFGQGTKVEIKRTVAAPSVFIFPPSDEQLKSGTASVVCLLNNFYPREAKVQWKVDNALQSGNSQESVTEQDSKDSTYSLSSTLTLSKADYEKHKVYACEVTHQGLSSPVTKSFNRGEC | 1.41 relative to SG1 | 5.1 relative to SG1 = 1.00

The next lines start with the values.

Row | biacore IC binding (relative, SG1 = 1.00) [1] | celluar uptake (labelled human latent myostatin taken up as antigen-antibody complex) [2] | Binder
6 | 1.33 relative to SG1 | 4.85 relative to SG1 = 1.00 | M103205H795-P1547m/M103202L889-SK1 (antibody, human IgG1, kappa, name in EU numbering, copies: 2 + 2) heavy: QVTLKESGPVLVKPTETLTLTCTVSGIDLSHDDISWVRQAPGKGLEWVGIISYAGSTYYASWAKGRLTISKDTSKNQVVLTMTNMDPVDTATYYCARGVPAYSHGGDLWGQGTLVTVSSASTKGPSVFPLAPSSKSTSGGTAALGCLVKDYFPEPVTVSWNSGALTSGVHTFPAVLQSSGLYSLSSVVTVPSSSLGTQTYICNVNHKPSNTKVDKKVEPKSCDKTHTCPPCPAPELLGGPSVFLFPPKPKDTLMISRTPEVTCVVVDVSHEDPEVKFNWYVDGVEVHNAKTKPREEQYNSTYRVVSVLTVLHRDWLNGKEYKCKVSNKALPAPIEKTISKAKGQPREPQVYTLPPSREEMTKNQVSLTCLVKGFYPSDIAVEWESNGQPENNYKTTPPVLDSDKSFFLYSKLTVKKSRWQQGNVFSCSVMHEALHNHYTQKSLSLSP light: DIVMTQSPATLSLSPGERATLSCTSSQSVYHANWLSWFQQKPGQPPKLLIYWASTLAYGVPSRFSGSGSGTDFTLTISSLQPEDAATYYCAGGYGGGRYAFGQGTKVEIKRTVAAPSVFIFPPSDEQLKSGTASVVCLLNNFYPREAKVQWKVDNALQSGNSQESVTEQDSKDSTYSLSSTLTLSKADYEKHKVYACEVTHQGLSSPVTKSFNRGEC
7 | 1.22 relative to SG1 | 2.03 relative to SG1 = 1.00 | M103205H795-P1549m/M103202L889-SK1 (antibody, human IgG1, kappa, name in EU numbering, copies: 2 + 2) heavy: QVTLKESGPVLVKPTETLTLTCTVSGIDLSHDDISWVRQAPGKGLEWVGIISYAGSTYYASWAKGRLTISKDTSKNQVVLTMTNMDPVDTATYYCARGVPAYSHGGDLWGQGTLVTVSSASTKGPSVFPLAPSSKSTSGGTAALGCLVKDYFPEPVTVSWNSGALTSGVHTFPAVLQSSGLYSLSSVVTVPSSSLGTQTYICNVNHKPSNTKVDKKVEPKSCDKTHTCPPCPAPELLGGPSVFLFPPKPKDTLMISRTPEVTCVVVDVSHEDPEVKFNWYVDGVEVHNAKTKPREEQYNSTYRVVSVLTVLHRDWLNGKEYKCKVSNKALPAPIEKTISKAKGQPREPQVYTLPPSREEMTKNQVSLTCLVKGFYPSDIAVEWESNRQPENNYKTTPPVLDSDRSFFLYSKLTVDKSRWQQGNVFSCSVMHEALHNHYTQKSLSLSP light: DIVMTQSPATLSLSPGERATLSCTSSQSVYHANWLSWFQQKPGQPPKLLIYWASTLAYGVPSRFSGSGSGTDFTLTISSLQPEDAATYYCAGGYGGGRYAFGQGTKVEIKRTVAAPSVFIFPPSDEQLKSGTASVVCLLNNFYPREAKVQWKVDNALQSGNSQESVTEQDSKDSTYSLSSTLTLSKADYEKHKVYACEVTHQGLSSPVTKSFNRGEC
8 | 1.37 relative to SG1 | 2.3 relative to SG1 = 1.00 | M103205H795-P1548m/M103202L889-SK1 (antibody, human IgG1, kappa, name in EU numbering, copies: 2 + 2) heavy: QVTLKESGPVLVKPTETLTLTCTVSGIDLSHDDISWVRQAPGKGLEWVGIISYAGSTYYASWAKGRLTISKDTSKNQVVLTMTNMDPVDTATYYCARGVPAYSHGGDLWGQGTLVTVSSASTKGPSVFPLAPSSKSTSGGTAALGCLVKDYFPEPVTVSWNSGALTSGVHTFPAVLQSSGLYSLSSVVTVPSSSLGTQTYICNVNHKPSNTKVDKKVEPKSCDKTHTCPPCPAPELLGGPSVFLFPPKPKDTLMISRTPEVTCVVVDVSHEDPEVKFNWYVDGVEVHNAKTKPREEQYNSTYRVVSVLTVLHRDWLNGKEYKCKVSNKALPAPIEKTISKAKGQPREPQVYTLPPSREEMTKNQVSLTCLVKGFYPSDIAVEWESNRQPENNYKTTPPVLDSRGSFFLYSKLTVDKSRWQQGNVFSCSVMHEALHNHYTQKSLSLSP light: DIVMTQSPATLSLSPGERATLSCTSSQSVYHANWLSWFQQKPGQPPKLLIYWASTLAYGVPSRFSGSGSGTDFTLTISSLQPEDAATYYCAGGYGGGRYAFGQGTKVEIKRTVAAPSVFIFPPSDEQLKSGTASVVCLLNNFYPREAKVQWKVDNALQSGNSQESVTEQDSKDSTYSLSSTLTLSKADYEKHKVYACEVTHQGLSSPVTKSFNRGEC
